Results on one substance are retold here after patent publication US20230059341A1.

The test has as its target Neonatal Fc Receptor (FcRn) (UniProt P55899). As to the kind of experiment: FcRn binding assay, BIACORE (SPR). On the technique in general: Surface plasmon resonance follows binding to a sensor surface in real time, without labels.

Chain of Neonatal Fc Receptor (FcRn) (P55899 24-297 limits assumed, chain 1 of 2): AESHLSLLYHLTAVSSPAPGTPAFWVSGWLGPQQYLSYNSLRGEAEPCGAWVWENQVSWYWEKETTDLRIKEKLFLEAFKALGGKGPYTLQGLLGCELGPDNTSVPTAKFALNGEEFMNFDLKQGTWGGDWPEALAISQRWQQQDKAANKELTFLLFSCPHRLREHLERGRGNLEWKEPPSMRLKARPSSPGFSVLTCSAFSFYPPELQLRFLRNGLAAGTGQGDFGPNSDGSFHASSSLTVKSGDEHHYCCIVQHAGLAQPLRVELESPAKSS
Chain of Neonatal Fc Receptor (FcRn) (P61769 21-119 limits assumed, chain 2 of 2, further chain): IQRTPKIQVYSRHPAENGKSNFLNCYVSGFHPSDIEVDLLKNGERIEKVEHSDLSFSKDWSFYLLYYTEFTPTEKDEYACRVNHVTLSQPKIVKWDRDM

Consider “Dostarlimab, base degraded, pH 9.0, 40° C., 1 week (antibody)”, for which the dissociation constant Kd (in general, the concentration at which binding is half-saturated) came to 2.34 µM.
